Test results from patent publication US20190144550A1.

Key:
[1] = biological target: wild-type EGFR expressed on cells (human), P00533; test: flow cytometry, A431 cells; conditions: remark: other sources report otherwise
[2] = biological target: wild-type EGFR expressed on cells (human), P00533; test: flow cytometry, F98-EGFRwt cells; conditions: remark: other sources report otherwise

B1: 34E7 (antibody, V domains shown)
VH: EVNLVESGGGLVKPGGSLRLSCEASGFTFSYAWMSWVRQAPGKGLEWVGRIKSINDGGATDYASPVRNRFTISRDDSRNMLYLEMHSLKTEDTAVYYCTTIPGNDAFDMWGQGTLVTVSS
VL: DIVLTQSPLSLSVTPGEPASISCRSTQSLLYSNGKNYLDWFLHKPGQSPQLLIFLGSIRASGVPDRFSGSGSGIDFILKISRVEAEDVGVYYCMQAQQTPITFGQGTRLEIK
Work on B1 yielded a % positive [1] of 1.1%, an MFI [1] of 294 and an MFI [2] of 371.
